Results as given in the supplement of paper PMC10567573.

B1: SCNN1D (parent)
chain: FLGHHSFSVRPGTEATISIREDEV

Variants of: B1
Test: protein stability index of a GFP-peptide fusion (GPS, HEK-293T) (PSI 1-6); higher = more stable
Conditions: c terminus: a fixed tail appended
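Note: lentivirally expressed fusions sorted by FACS into six bins by GFP to DsRed ratio, PSI derived from sequencing read proportions per bin multiplied by bin number.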

Protein stability index of substitutions, site by site:
D22: F 1.73, K 2.04, I 2.39, A 1.89, Q 1.39, E 2.11, R 2.4
E23: H 2.32, T 1.41, P 1.99, K 2.38, Y 2.54, N 2.1, M 1.91, S 1.06, V 2.05, A 1.96, G 2.29
P11: F 1.47, S 1.72, Q 1.99, N 1.98, I 2.14, W 1.97, Y 1.99, E 2.14, M 1.25, L 1.82, T 1.59, V 1.53, R 2.02
R20: I 2.5, D 1.9, Y 1.77, L 1.52, W 1.42, S 2.27, E 2.1, V 1.65, Q 1.79, G 2.3, P 1.79, M 1.5, H 1.67, T 1.79, A 2.3
H4: K 2.16, I 2.64, P 1.7, T 2.16, M 1.58, Y 1.42, A 2.74, D 3.7, G 2.2, L 2.08, Q 1.32, E 3.39, V 1.77
V9: Q 2.86, P 2.18, W 1.64, G 3.44, R 3.8, N 2.6, F 2.33, Y 2.84, T 2.29, L 2.15, H 3.09, M 2.42, D 3.54, I 2.26, C 2.08
T16: Q 2.8, C 1.29, A 2.37, W 1.4, S 2.57, M 2.62, R 2.46, G 2.1, D 3.29, L 1.49, K 1.75, I 2.29, F 2.04
S18: M 1.55, T 1.66, Q 1.79, A 1.6, R 2.22, Y 1.71, N 1.57, F 1.8, L 2.2, D 1.43, V 1.25, E 2.49
V24: M 2.75, R 1.49, Q 2.25, T 1.66, A 1.8, S 1.62, W 1.44, G 1.9, I 1.8, L 1.66, F 1.76, E 2.27, Y 1.48, C 1.81, N 1.99
G12: W 1.42, I 1.54, A 2.2, S 1.55, Q 1.56, C 2.24, P 1.83, H 1.81, R 1.46, D 2.35, L 1.71, K 1.71, N 2.05, F 2.69
I17: F 1.36, Q 2.54, W 1.58, T 2.24, V 1.68, M 1.75, K 2.32, G 2.38, H 2.23, Y 2.79, E 2.1, S 1.66, A 2.44, L 1.62
G3: R 2.09, M 1.42, K 3.02, I 1.59, H 2.71, S 2.42, D 2.77, A 1.95, E 2.58, P 4.02, V 1.64
S8: I 2.04, C 4.76, T 1.62, P 3.49, G 2.43, M 1.75, D 3.02, N 2.4, H 2.12, L 1.65, V 1.8, Y 1.86, Q 1.78, F 1.37
